The target in this test is palm-Mover-flag (not stated | rat). The test is described as follows: plasma membrane recruitment assay in cells (immunofluorescence, line scans); Vero cells co-transfected with palm-Mover-flag and a myc- or GFP-tagged Mover construct; fixed after 24 h, stained against the tags; a cell is positive for recruitment when the fluorescence profiles co-peak in the cell periphery.
Take Mover-myc (natural protein): the percent of cells showing recruitment (percent of cells) was 94. Then GFP-Mover (natural protein), with 94; and Mover-GFP (natural protein), with 61. On to GFP-Mover 34–266 (domain or fragment), for which the percent of cells showing recruitment (percent of cells) was found to be 71. Substance GFP-Mover 52–266 (domain or fragment) gave a percent of cells showing recruitment (percent of cells) of 86.

The values above are taken from publication PMC3665746.
